# Laboratory results reported in patent US20220056133A1.
# B1: antibody MA-042 (antibody, human IgG1, kappa, V domains shown)
# VH: QVQLVQSGSELKKPGESVKVSCKASGYTFTDYLVHWVRQAPGQGLEWMGWINTYTGTPTYADDFEGRFVFSLDTSVSTANLQISSLKAEDTAVYFCARSWRRGLRGIGFDYWGQGTLVTVSS
# VL: DIQMTQSPYSLSASVGDRVTITCKASKSINKYLAWFQQKPGKPNKLLIYDGSTLQSGVPSRFSGSGSGTDFTLTISSLEPEDFATYYCQQHNEYPPTFGQGTKLEIKR
# Experiments:
# [1] = biological target: TRBV9 family TCR on human peripheral blood T lymphocytes (human)
# [2] = biological target: TRBV9 family TCR on human peripheral blood T lymphocytes (human); assay: cell-based or functional assay
# [3] = biological target: TRBV9 family TCR on human peripheral blood T lymphocytes (human); assay: flow cytometry sorting of human peripheral blood mononuclear cells stained with MA-042-FITC, CD3-eFluor405 and CD45-PC5 at 100 ng/ml; dot plot of MA-042 against CD3
# [4] = biological target: human antigen (immobilised on AR2G sensors in the Octet assay of Example 2) (human); assay: BLI (OctetRed 96), antigen immobilised on AR2G sensors, antibody in solution, 1:1 global model, 30 C
# [5] = biological target: TRBV9 family TCR on human peripheral blood T lymphocytes (human); assay: FACS sorting with MA-042-FITC, then sequencing of the TCR beta-chain repertoire of the sorted cells
binder,measurement,setting,value
B1,share of CD3+ cells in the TRBV9+ (MA-042-FITC positive) gate after the cytotoxicity assay with 1 ng/ml MA-042 (right panel),[1],2%
same,share of CD3+ cells in the TRBV9+ (MA-042-FITC positive) gate after the cytotoxicity assay with 1 ug/ml MA-042 (left panel),[1],0.3%
same,"EC50 in a cytotoxicity assay (elimination of TRBV9-positive cells among CD3+ lymphocytes, flow cytometry after 72 hours)",[2],0.1 µg/mL
same,antibody concentration at which complete elimination of the target population was detected,[2],500 ng/mL
same,MA-042+ (share of cells in the MA-042+ gate),[3],1.9%
same,Kd,[4],< 1 pM
same,koff,[4],< 1e-07 s⁻¹
same,kon,[4],319000 M⁻¹ s⁻¹
same,enrichment of the sorted fraction's TCR beta-chain libraries with TRBV9-encoded sequences,[5],93%
